According to publication PMC6908751:
Where two headings read alike, the source gives them in different places.

Assays:
[1] = biological target: Sh2 N9 Y169aH NA ectodomain (stabilized tetramer) (influenza A virus A/Shanghai/02/2013 (H7N9))
[2] = biological target: Sh2 N9 Y169aH NA ectodomain (stabilized tetramer) (influenza A virus A/Shanghai/02/2013 (H7N9)); assay: crystal structure

For “Sh2 N9 Y169aH NA ectodomain (stabilized tetramer) (domain or fragment)”, the stoichiometry N [1] was 4 and the stoichiometry N [2] was 4.
